For experiment [1], the target named is human AmphiphysinII/Bin1 N-BAR domain (human). Nature of the experiment: double-mixing stopped-flow N assay (fluorescence); unfolded in 4 M urea, refolding at 1 to 5 μM N-BAR in 0.66 M urea for 0.1 to 300 s, then unfolding in 4.5 M urea; λ2 from the amplitudes of the fast unfolding phase λ5; 15°C; step: monomers to dimeric intermediate I2.
Experiment [2] shares this target. Nature of the experiment: stopped-flow refolding kinetics, single mixing (fluorescence); unfolded in 4 M urea, refolding by 11-fold dilution to 0.4 M urea, 0.1 to 5 μM N-BAR, 20 mM Na phosphate, 100 mM NaCl, pH 7.4, 15°C; step: two monomeric intermediates I to dimeric intermediate I2; λ2 fixed to the value from fluorescence anisotropy. For orientation: In fluorescence polarisation assays a small probe gives low polarisation when free and higher when bound to something large.

In the case of “human AmphiphysinII/Bin1 N-BAR domain (domain or fragment)”, in experiment [1], the λ2, second-order rate constant of the dimerization step at 0.66 M urea, 1 μM N-BAR was 260000 M⁻¹ s⁻¹; the λ2, second-order rate constant of the dimerization step at 0.66 M urea, 2 μM N-BAR was determined as 480000 M⁻¹ s⁻¹; the λ2, second-order rate constant of the dimerization step at 0.66 M urea, 5 μM N-BAR was found to be 430000 M⁻¹ s⁻¹. Also, the λ2, second-order rate constant of the dimerization step at 0.4 M urea in experiment [2] came out at 620000 M⁻¹ s⁻¹.

Source of the values: article PMC4569573.
